Assay results published in patent US20040198656A1, “Methods of screening molecules that are used to prevent cardiovascular diseases” (priority 2001, published 2004).

How the values were obtained:
Format in all cases: in vivo
[1] = Triglyceride levels in AA4RP transgenic mice on a lipid-rich diet
Experimental: Samples from AA4RP transgenic mice or control mice maintained on a lipid-rich diet were diluted 1/3 or 1/5in physiological serum, then assayed for triglycerides against a calibration curve prepared with CFAS lipid calibrator, Ref. 759350 (Boehringer Mannheim GmbH, Germany). The calibration curve covered a concentration range of 16 to 500 μg/ml. 100 μl of each sample dilution or calibration point were deposited in each well of a 96-well titration plate. Next, 200 μl of triglyceride reagent Ref. 701912 (Boehringer Mannheim GmbH, Germany) were added to each well and the plate was incubated at 37° C. for 30 min. Optical densities (OD) were read on a spectrophotometer set at 492 nm. Triglyceride concentrations in each sample were calculated from a standard curve plotted as a linear equation y=ax+b, where y represents OD and x represents triglyceride concentration.

[2] = test system: apo CIII; assay: Apo CIII assay by immuno-nephelometry in mice overexpressing human AA4RP; conditions: AA4RP transgenic mice, lipid-rich diet
Experimental: Apo CIII in mice overexpressing human AA4RP was assayed by immuno-nephelometry on an ARRAY® immunochemistry system (Beckman Coulter, Villepinte, France). Pooled sera from normolipidic mice were used as standard; the apo CIII concentration therein was 25 μg/ml. A calibration curve from 4 μg/ml to 25 μg/ml was prepared by diluting the standard in 0.01 M potassium phosphate pH 7.2.
Plasma samples from mice overexpressing human AA4RP or not, maintained on a lipid-rich diet, and plasma samples from knock out homozygous (−/−), heterozygous (+/−) or wild type (+/+) mice were diluted 1/6 or 1/12 in the same conditions as the standard. Forty-two microliters of each calibration point and each sample from the different mice under study were incubated with 42 μl of mouse anti-apo CIII (in a reaction cell containing polyethylene glycol (PEG)). The apo CIII concentration in the sample is directly proportional to the light intensity reflected by the precipitate formed during the antigen-antibody reaction.

[3] = Triglyceride distribution in VLDL, LDL and HDL (Superose 6 FPLC) of plasma; conditions: AA4RP transgenic mice versus control mice, plasma fractions
Experimental: The distribution of triglycerides in VLDL, LDL and HDL was studied on 200 μl fractions of plasma from AA4RP transgenic mice or control mice maintained on a lipid-rich diet.
The different particles were fractionated on a Pharmacia Superose 6 column integrated in an AKTA FPLC system (Pharmacia Biotech, Umeå, Sweden). The different fractions were eluted with 0.01 M PBS, 0.1 M NaCl, pH 7.2 at a flow rate of 0.2 ml/min. The triglyceride concentration in each fraction was determined as described hereinabove.

[4] = test system: total lipase; assay: Total lipase activity in post-heparin plasma (radiolabelled triolein, apo CII); conditions: human AA4RP transgenic mice, FVB/N background
Experimental: (§1) The test was carried out on post-heparin plasma (collected 5 min after heparin injection) from transgenic mice and control mice with a FVB/N genetic background. Total lipase activity was determined by incubation with radiolabelled triolein and in the presence of a cofactor (apo CII). HL activity was determined after incubation of each plasma sample with triolein but in this case in the absence of apo CII and in the presence of 1 M NaCl to eliminate LpL activity. Lipase activity in each plasma sample was then calculated by determining the number of moles of free fatty acid. Finally, LpL activity was calculated by subtracting HL activity from total lipase activity.

[5] = test system: HL; assay: HL activity in post-heparin plasma (triolein, no apo CII, 1 M NaCl); conditions: human AA4RP transgenic mice, FVB/N background
Experimental: as §1

[6] = test system: LpL; assay: LpL activity in post-heparin plasma (total lipase minus HL); conditions: human AA4RP transgenic mice, FVB/N background
Experimental: as §1

B1: AA4RP: Protein of 366 amino acids (SEQ ID NO 1), apolipoprotein AIV related protein; overexpressed in transgenic mice (protein, listed as Homo sapiens)
chain: MASMAAVLTWALALLSAFSATQARKGFWDYFSQTSGDKGRVEQIHQQKMAREPATLKDSLEQDLNNMNKFLEKLRPLSGSEAPRLPQDPVGMRRQLQEELEEVKARLQPYMAEAHELVGWNLEGLRQQLKPYTMDLMEQVALRVQELQEQLRVVGEDTKAQLLGGVDEAWALLQGLQSRVVHHTGRFKELFHPYAESLVSGIGRHVQELHRSVAPHAPASPARLSRCVQVLSRKLTLKAKALHARIQQNLDQLREELSRAFAGTGTEEGAGPDPQMLSEEVRQRLQAFRQDTYLQIAAFTRAIDQETEEVQQQLAPPPPGHSAFAPEFQQTDSGKVLSKLQARLDDLWEDITHSLHDQGHSHLGDP
[1]; Student's t test p<0.001
  Triglyceride levels versus control mice: significantly lower
[1]; mean
  Triglycerides: 0.361 mg/mL
[2]
  Apo CIII level versus control mice: approximately three times lower
[2]; plasma, mean
  Apo CIII: 30.70 µg/mL
[3]
  Accumulation of triglyceride-rich particles after a lipid-rich diet: not observed
[4]
  Total lipase activity versus controls: significant increase
[5]
  HL activity versus controls: significant increase
[6]
  LpL activity versus controls: significant increase
